{"source": "the nanobody polyreactivity screen of Harvey et al. (2022)", "data": [{"test": "yeast display, Sf9 membrane polyspecificity reagent, FACS + sequencing; frameworks hold sequencing errors", "how_it_was_run": "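A synthetic nanobody library was expressed on Saccharomyces cerevisiae BJ5465 by galactose induction for 36–48 hours. The library was stained for 1 hour at 4 °C with 10% biotinylated, detergent-solubilized Sf9 membrane reagent and enriched with streptavidin microbeads before FACS. Low and high (top ~1%) gates were set on anti-HA fluorescence for expression and streptavidin fluorescence for reagent binding, and each polyreactivity label reflects the gate of origin.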", "values": [{"sequence": "QVQLVESGGGLVQAGGSLRLSCAASGITFLTYAMGWYRQSPGKDRELVASITYSGGTTYYADSVKGRFTISRDNAKNTVYLQMNSLQPEDTAVYYCNTDWRTSVGYDYWGQGTQVTVSS", "polyreactivity (PSR sort gate)": "low polyreactivity"}, {"sequence": "QVQLVESGGGLVQAGGSLRLSCAASGITFLTYTMGWYRQAPGKERELVAAISRSGGRTYYADSVKGRFTISRDNAKNTVYFQMNSLKPEDTAVYYCAAVSANQDFDYWGQGTQVTVSS", "polyreactivity (PSR sort gate)": "high polyreactivity"}, {"sequence": "QVQLVESGGGLVQAGGSLRLSCAASGITFLYYTRGWYRPAPGKERELVASISRSGNTYYADSVKGRFTISRDNAKNTVYLQMNSLKPEDTAVYYCAAKRKSYYSYNFDYWGQGTQVTVSS", "polyreactivity (PSR sort gate)": "high polyreactivity"}, {"sequence": "QVQLVESGGGLVQAGGSLRLSCAASGITFNAYAMGLYRQAPGKERELVAAISRSGGSTYYADSVKGRFTISRDNANNTVYLQMNSLKPEDTAVYYCAVDYRTRGDYWGQGTQVTVSS", "polyreactivity (PSR sort gate)": "high polyreactivity"}, {"sequence": "QVQLVESGGGLVQAGGSLRLSCAASGITFNDNAMGWYRQAPGKERELVAAINSGTGTYYADSVKGRFTISRDNAKNTVYLQMNSLKPEDTAVYYCAADSRPYLRDYWGQGTQVTVSS", "polyreactivity (PSR sort gate)": "low polyreactivity"}, {"sequence": "QVQLVESGGGLVQAGGSLRLSCAASGITFNEYAMGWYIQAPGKERELVAAISRRGGSTYYADSVKGRFTISRDNAKNTVYLQMNSLKPEDTAVYYCAAYYPSHEYSGFWSDTYEYWGQGTQVTVSS", "polyreactivity (PSR sort gate)": "low polyreactivity"}, {"sequence": "QVQLVESGGGLVQAGGSLRLSCAASGITFNRYAMGWYRQAPGKERELVATISYRGGSTSYADSVKGRFTISRDNAKNTVYLQMNSLKPEDTAVYYCATDEGYVLFKYYSWGQGTQVTVSS", "polyreactivity (PSR sort gate)": "low polyreactivity"}, {"sequence": "QVQLVESGGGLVQAGGSLRLSCAASGITFNSYAMGWYRQAPGKERELVAAISGSGSSTYYADSVKGRFTISRDNAKNTVYLQMNSLKPEDTAVYYCAATVYSSWTYYTHEYWGQGTQVTVSS", "polyreactivity (PSR sort gate)": "low polyreactivity"}, {"sequence": "QVQLVESGGGLVQAGGSLRLSCAASGITFNTYAMGWYRQAPGKERELVAVITWSDGGTYYADSVKGRFTISRDNAKNTVYLQMNSLKPEDTAVYYCAKVLGGLRHGEVLDEYDYWGQGTQVTVSS", "polyreactivity (PSR sort gate)": "low polyreactivity"}, {"sequence": "QVQLVESGGGLVQAGGSLRLSCAASGITFNYYVKGWYRQAPGKERELVAAIRRGGSTNYADSVKGRFTISRDNAKNTVYLQMNSLKPEDTAVYYCASRTYRGLAYDYWGQGTQVTVSS", "polyreactivity (PSR sort gate)": "high polyreactivity"}, {"sequence": "QVQLVESGGGLVQAGGSLRLSCAASGITFPDYAMGWYRQAPGKERELVASISDSGGNTYYADSVKGRFTISRDNAKNTVYLQMNSLKPEDTAVYYCAVDSWYYYIVLYDYWGQGTQVTVSS", "polyreactivity (PSR sort gate)": "high polyreactivity"}, {"sequence": "QVQLVESGGGLVQAGGSLRLSCAASGITFPGYAMGSYRQAPGKERELVAVIRKSGTSTYYADSVKGRFTISRDNAKNTVYLQMNSLKPEDTAVYYCAAGGPSTLDDYWGQGTQVTVSS", "polyreactivity (PSR sort gate)": "low polyreactivity"}, {"sequence": "QVQLVESGGGLVQAGGSLRLSCAASGITFPGYAMGWYRQAPGKERELVAAIDWSGDGTYYADSVKGRFTISRDNAKNTVYLQMNSLKPEDTAVYYCAKDNYPNHSTVLAVIYDYWGQGTQVTVSS", "polyreactivity (PSR sort gate)": "low polyreactivity"}, {"sequence": "QVQLVESGGGLVQAGGSLRLSCAASGITFPHYAMGWYRQAPGKERELVAAISSSGGRTYYADSVKGRFTISRDNAKNTVYFQMNSLKPEDTAVYYCNKLRYPLLPPKYYYWGQGTQVTVSS", "polyreactivity (PSR sort gate)": "high polyreactivity"}, {"sequence": "QVQLVESGGGLVQAGGSLRLSCAASGITFPKYAMGWYRQAPGKERELVAAITKSGGSTYYADSVKGRFTISRDNAKNTVYLQMNSLKPEDTAVYYCAVVSRGITKYDYWGQGTQVTVSS", "polyreactivity (PSR sort gate)": "high polyreactivity"}, {"sequence": "QVQLVESGGGLVQAGGSLRLSCAASGITFPLYVMGWYRQAPGKERELVAAISASGGSTYADSVKGRFTISRDNAKNTVYLQMNSLKPEDTAVYYCNADVYVGYEYVYWGQGTQVTVSS", "polyreactivity (PSR sort gate)": "low polyreactivity"}, {"sequence": "QVQLVESGGGLVQAGGSLRLSCAASGITFPRNAMGWYRQAPGKERELVAAISARGGNTYYADSVKGRFTISRDNSKNTGYLQMIRLKPEDTAVYDCNALGSSFSEPSEYDYWGQGTQVTVSS", "polyreactivity (PSR sort gate)": "low polyreactivity"}, {"sequence": "QVQLVESGGGLVQAGGSLRLSCAASGITFPRNAMGWYRQAPGKERELVAAISARGGNTYYADSVKGRFTISRDNSKNTVYLQMNSLKPEDTAVYYCNALGSSYSEPSEYDYWGQGTQVTVSS", "polyreactivity (PSR sort gate)": "low polyreactivity"}, {"sequence": "QVQLVESGGGLVQAGGSLRLSCAASGITFPRYTMGWYRPAPGKERELVAAISSGGSTYYADSVKGRFTISRDNAKNTVYLQMNSLKPEDTAVYYCNAVVPYWYYIYDYWGQGTQVTVSS", "polyreactivity (PSR sort gate)": "high polyreactivity"}, {"sequence": "QVQLVESGGGLVQAGGSLRLSCAASGITFPSYVMGWYRQAPGKEREFVAAITGSAGSTYYADSVKGRFTISRDNAKNTVYLQMNSLKPEDTAVYYCAARVRYVNPKYYYWGQGTQVTVSS", "polyreactivity (PSR sort gate)": "high polyreactivity"}, {"sequence": "QVQLVESGGGLVQAGGSLRLSCAASGITFPVYAMGWYRQAPGKEREFVASIRFSTGRTYYADSVKARFTISRDYAKNTVYLQMNSLKPEDTAVYYCRGTTQSPYNSWGQGTQVTVSS", "polyreactivity (PSR sort gate)": "high polyreactivity"}, {"sequence": "QVQLVESGGGLVQAGGSLRLSCAASGITFPYNAMGWYRQAPGKERELVADISSSGGITYYADSVKGRFTISRDNAKNTVYLQMNSLKPEDTAVYYCAVRKYGYGFEMDYWGQGTQVTVSS", "polyreactivity (PSR sort gate)": "low polyreactivity"}, {"sequence": "QVQLVESGGGLVQAGGSLRLSCAASGITFQRYAMGWYRQAPGKERELVAAITRRGGSTYYADSVKGRFTISRDNAKNTVYLQMNILKPEDTAVYYCAADLFFKARGYDYWGQGTQVTVSS", "polyreactivity (PSR sort gate)": "high polyreactivity"}, {"sequence": "QVQLVESGGGLVQAGGSLRLSCAASGITFQWYAMGWYRQAPGKERELVAAITYRGGSTYYADSVKGRFTISRDNAKNTVYLQMNSLKPEDTAVYYCARDHSRHLHPSWLDYWGQGTQVTVSS", "polyreactivity (PSR sort gate)": "high polyreactivity"}, {"sequence": "QVQLVESGGGLVQAGGSLRLSCAASGITFQYYAMGWYRQAPGKERELVASISYRGGRTYYADSVKGRFTISRDNAKNTVYLQMNSLKQEDTSVYYCAADWRYTTFWTLRYYGFDYWGQGTQVTVSS", "polyreactivity (PSR sort gate)": "high polyreactivity"}, {"sequence": "QVQLVESGGGLVQAGGSLRLSCAASGITFRAYALGWYRQAPGKEREFVAAISWRGGSTYYADSVKGRFTISRDNAKNTVYLQMNSLKPEDTAVYYCAVGSYDHDYWYEYWGQGTQVTVSS", "polyreactivity (PSR sort gate)": "high polyreactivity"}, {"sequence": "QVQLVESGGGLVQAGGSLRLSCAASGITFRFNARVWYRQEPGKEREFVAAITYSGDSTYYADSVKGRFTISRDNAKNTVYLQMNSLKPEDTAVYYCAADYYAISRRIFYYWGQGTQVTVSS", "polyreactivity (PSR sort gate)": "low polyreactivity"}, {"sequence": "QVQLVESGGGLVQAGGSLRLSCAASGITFRFYALGWYRKAPGKEREFVAAISSRGGRTYYADSVKGRFTISRDHAKNTVYLQMNSLKPEDTAVYYCAADFYYRTVATVTSVARYDYWGQGTQVTVLS", "polyreactivity (PSR sort gate)": "high polyreactivity"}, {"sequence": "QVQLVESGGGLVQAGGSLRLSCAASGITFRFYAMGWYRQAPGKERELVAAISWSGGSTNYADSVKGRFTISRDNAKNTVYLQLNSLKPEDTAVYYCAADQYYYRYIRTSKYDYWGQGTQVTVSS", "polyreactivity (PSR sort gate)": "high polyreactivity"}, {"sequence": "QVQLVESGGGLVQAGGSLRLSCAASGITFRFYAMGWYRQPPGKERELVAAITSGGGTYYADSVKGRFTISRDNAKNTVYLQMNSLKPEDTAVYYCAAYQYNRKRHNYWGLGTQVTVSS", "polyreactivity (PSR sort gate)": "high polyreactivity"}, {"sequence": "QVQLVESGGGLVQAGGSLRLSCAASGITFRGYAMGWYRKAPGKERELVASITNTDSTYYADSVKGRFTISRDNAKNTVYLQMNSLKPEDTAVYYCAARRGRKYGYWGQGTQVTVSS", "polyreactivity (PSR sort gate)": "high polyreactivity"}, {"sequence": "QVQLVESGGGLVQAGGSLRLSCAASGITFRGYAMGWYRQAPGKERELVAAITWSGGSTYYADSVKGRFTISRDNAKNTVYLQMNSLKPEDTAVYYCAAYSLHNYLSEYGYWGQGTQVTVSS", "polyreactivity (PSR sort gate)": "high polyreactivity"}, {"sequence": "QVQLVESGGGLVQAGGSLRLSCAASGITFRGYAMGWYRQAPGKERELVATISSGGSTNYADSVKGRFTISRDNAKNTVDLQRISLKPEDTAVYYCNAVYRRGYGYWGQGTQVTVSS", "polyreactivity (PSR sort gate)": "high polyreactivity"}, {"sequence": "QVQLVESGGGLVQAGGSLRLSCAASGITFRKYAMGWSRQAPGKERELVAAISAGGGRTFYADSVKGRFTISRDNAKNTVYLQMNSLKPEDTAVYYCNADLGIGYDYWGQGTQVTVSS", "polyreactivity (PSR sort gate)": "high polyreactivity"}, {"sequence": "QVQLVESGGGLVQAGGSLRLSCAASGITFRPYPMGWYRQAPGKERELVATINWSGGSTYYADSVKGRFTISRDNAKKTVYLQMNSLKPEDTAVSYCAVTWYVRRWYGYWGQGTQVTVSS", "polyreactivity (PSR sort gate)": "high polyreactivity"}, {"sequence": "QVQLVESGGGLVQAGGSLRLSCAASGITFRRYAMGWYRKAPGTERELVATITRGDNTYYADSVKGRFTISRDNAKNTVYLQMNSLKPEDTAVYYCAKGWPTDDYDYWGQGTQVTVSS", "polyreactivity (PSR sort gate)": "high polyreactivity"}, {"sequence": "QVQLVESGGGLVQAGGSLRLSCAASGITFRVNAMGWYRQAPGKERELVAAISQIGGSTYYADSVKGRFTISRDNAKNTVYLQMNSLKPEDTAVYYCAARRRWYNYNYWGQGTQVTVSS", "polyreactivity (PSR sort gate)": "high polyreactivity"}, {"sequence": "QVQLVESGGGLVQAGGSLRLSCAASGITFRWNAMGWYRPAPGKERELVAAITTRGGGTYYADSVKGRFTISRDNAKNTVYLQMNSMKPEDTAVYYCAAKKSRYPYNYWGQGTQVTVSS", "polyreactivity (PSR sort gate)": "high polyreactivity"}, {"sequence": "QVQLVESGGGLVQAGGSLRLSCAASGITFRYYAMGWYRPAPGKERELVAALTSGGSTNYADSVKGRFTISRDNAKNTVYLQMNSLIPEDTAVYYCAATSYYRTNYGLVFLYRRNYWGQGTQVTVSS", "polyreactivity (PSR sort gate)": "high polyreactivity"}, {"sequence": "QVQLVESGGGLVQAGGSLRLSCAASGITFRYYAMGWYSQAPGKERELVAAITRGGRTNYADSVKGRYTISRDNAKNTVYLQMNSLKPEDTAVYYCAAGRVGRLSEYNYWGQGTQVTVSS", "polyreactivity (PSR sort gate)": "high polyreactivity"}, {"sequence": "QVQLVESGGGLVQAGGSLRLSCAASGITFRYYVMGWYRQAPGKERELVAAISWSGGSTYYADSVKGRFTISRDNAKNTVYLQMNCLKPEDTAVYYCAAYKRRSNGRYWTYDYWGQGTQVTVSS", "polyreactivity (PSR sort gate)": "high polyreactivity"}]}]}
